Results as given in PMC5548745, “Agonist-induced dimer dissociation as a macromolecular step in G protein-coupled receptor signaling” (Nature Communications, 2017).

B1: Frizzled 6 (FZD6), wild type, expressed as V5-FZD6-mCherry and as FZD6-GFP [human] / Frizzled 6 (FZD6), wild type, expressed as V5-FZD6-mCherry and as FZD6-GFP [human] (parent)
chain 1: HSLFTCEPITVPRCMKMAYNMTFFPNLMGHYDQSIAAVEMEHFLPLANLECSPNIETFLCKAFVPTCIEQIHVVPPCRKLCEKVYSDCKKLIDTFGIRWPEELECDRLQYCDETVPVTFDPHTEFLGPQKKTEQVQRDIGFWCPRHLKTSGGQGYKFLGIDQCAPPCPNMYFKSDELEFAKSFIGTVSIFCLCATLFTFLTFLIDVRRFRYPERPIIYYSVCYSIVSLMYFIGFLLGDSTACNKADEKLELGDTVVLGSQNKACTVLFMLLYFFTMAGTVWWVILTITWFLAAGRKWSCEAIEQKAVWFHAVAWGTPGFLTVMLLAMNKVEGDNISGVCFVGLYDLDASRYFVLLPLCLCVFVGLSLLLAGIISLNHVRQVIQHDGRNQEKLKKFMIRIGVFSGLYLVPLVTLLGCYVYEQVNRITWEITWVSDHCRQYHIPCPYQAKAKARPELALFMIKYLMTLIVGISAVFWVGSKKTCTEWAGFFKRNRKRDPISESRRVLQESCEFFLKHNSKVKHKKKHYKPSSHKLKVISKSMGTSTGATANHGTSAVAITSHDYLGQETLTEIQTSPETSMREVKADGASTPRLREQDCGEPASPAASISRLSGEQVDGKGQAGSVSESARSEGRISPKSDITDTGLAQSNNLQVPSSSEPSSLKGSTSLLVHPVSGVRKEQGGGCHSDT
chain 2: B1 chain 1

Variants of: B1
Assay: dcFRAP
Settings: with Frizzled 6 (FZD6), GFP channel (FZD6-GFP dimer control mutant), without CL (before crosslinking of V5-FZD6-mCherry), N = 75 ROIs, read off a plot

response (% of pre-bleach)	Variant
85	chain 1 D347E R350K Y351F

Same assay, conditions: with Frizzled 6 (FZD6), GFP channel (FZD6-GFP dimer mutant), without CL (before biotin-anti-V5/avidin surface crosslinking of V5-FZD6-mCherry), N = 23 ROIs, read off a plot

response (% of pre-bleach)	Variant
85	chain 1 D347A R350A Y351A
